The record followed here is patent publication US20220235132A1 (ANAPTYSBIO, published 2022).

Values joined by “and” are separate entries in the source; they are usually repeats but may differ in a detail not shown here. Equal entries are not always repeated.

Assay [1] deals with T1, human PD-1 expressed on cells (human, UniProt Q15116 25-288). Briefly: cell-based or functional assay.
Assay [2] deals with T2, cynomolgus PD-1 (as used in KinExA) (cynomolgus monkey).
T2 construct: also called Cynomolgus PD-1 KD (KinExA)
Briefly: KinExA (kinetic exclusion assay). (Kinetic exclusion samples the free partner from a solution-phase mixture.)

Assay [3] concerns the target T3, biotinylated cynomolgus monkey PD-1 extracellular domain monomer (cynomolgus monkey, UniProt B0LAJ3 25-170, Biotinylated; neither the site nor the method is stated, and the letters do not carry it.).
T3 construct: Captured on a streptavidin sensor chip for SPR; also called Cynomolgus PD-1 (SPR)
Briefly: SPR (Biacore T200), biotinylated PD-1 ECD monomer captured on SA chip. For orientation: In SPR one partner is held on a chip, and binding of the other changes the refractive index at the surface.

Assay [4] addresses T4, cynomolgus monkey PD-1 expressed on cells (cynomolgus monkey, UniProt B0LAJ3 25-288).
T4 construct: also called cynomolgus PD-1; PD-1 on stably transfected HEK 293 cells
Briefly: flow cytometry, HEK 293 cells stably expressing cynomolgus monkey PD-1. The protocol: HEK 293 cells were stably transfected to express either human PD-1 or cynomolgus monkey PD-1. Cells were harvested by Accutase™ treatment (Innovative Cell Technologies, San Diego, Calif.), the cells expressing cynomolgus monkey PD-1 were treated with the lipophilic fluorescent dye Vybrant® DiD (ThermoFisher Scientific, Carlsbad, Calif.), and then mixed with an equal number of unlabeled HEK 293 cells expressing human PD-1. Cells (2×10⁵ total per sample) were stained with the indicated concentrations of each antibody for 40 min at 4° C. with gentle shaking, centrifuged and washed once. Cells were fixed in 2% paraformaldehyde in phosphate-buffered saline (PBS) for 10 min at room temperature, washed, and antibodies detected with Phycoerythrin (PE)-conjugated goat anti-human kappa (Southern Biotechnology, Birmingham, Ala.) for 15 min at 4° C. with gentle shaking. Cells were washed, resuspended, and bound antibody fluorescence quantified on a BD FACSArray™ (BD Biosciences, San Jose, Calif.). Data were analyzed for median fluorescence intensity (MFI) using FlowJo® analysis software (FlowJo, LLC). ECso values were determined in GraphPad Prism 5.0 (GraphPad Software) using a log(agonist) vs. response—Variable slope (4 parameters) curve fit. The results are shown in FIGS. 1 and 2, and the ECso values are set forth in Table 2 (human) and Table 3 (cynomolgus monkey). […]
For orientation: Flow cytometry measures light scatter and fluorescence of single cells or particles in a stream.

In assay [5] the target is T3, biotinylated cynomolgus monkey PD-1 …. Briefly: SPR screening (method taken from paragraph 169), N = 2. The protocol: KD measurements for screening by Surface Plasmon Resonance (SPR) were performed on a Biacore T200 (GE Healthcare Life Sciences, Pittsburgh, Pa.), and kinetic constants were fit globally using a 1:1 binding model. Biotinylated human or cynomolgus monkey PD-1 extracellular domain monomer was captured at a 1 nM concentration on a Biacore Sensor chip SA (GE Healthcare Life Sciences, Pittsburgh, Pa.), with a carboxymethylated dextran surface pre-immobilized with streptavidin. The captured antigen level was targeted to yield a low response to prevent avidity effects on the dissociation rate. Tm measurements were determined by fluorescence-based thermal shift and differential scanning calorimetry.

Assay [6] addresses T1, human PD-1 expressed on cells. Briefly: flow cytometry, 2-day anti-CD3/anti-CD28 activated human CD4+ T cells. The protocol:
Primary human peripheral blood CD4⁺ T cells were prepared using magnetic bead separation (CD4⁺ T Cell Isolation Kit, Miltenyi Biotec, Auburn, Calif.) of peripheral blood mononuclear cells (PBMCs) and activated for 48 hours with plastic-coated anti-CD3 and anti-CD28 in 6-well plates. Cells (1×10⁵ per sample) were washed and stained in V-bottom 96-well plates with the indicated concentrations of each antibody for 30 min at 4° C. with gentle shaking, centrifuged and washed once. Cells were fixed in 4% paraformaldehyde in PBS for 10 min at room temperature, washed, and antibodies detected with Alexa Fluor 647-conjugated F(ab′)2 goat anti-human IgG Fc (Jackson ImmunoResearch, West Grove, Pa.) for 10 min at 4° C. Cells were washed, resuspended, and bound antibody fluorescence quantified on a BD FACSArray™ (BD Biosciences, San Jose, Calif.). Data were analyzed for geometric mean fluorescence intensity (MFI) using FlowJo® analysis software (FlowJo, LLC). ECso values were determined in GraphPad Prism 7.02 (GraphPad Software) using a log(agonist) vs. response—Variable slope (4 parameters) curve fit.

The target of assay [7] is T5, biotinylated human PD-1 extracellular domain monomer (human, UniProt Q15116 25-170, biotinylated (site not stated)).
T5 construct: extracellular domain; Captured on a streptavidin sensor chip for SPR; also called Human PD-1 (SPR)
Briefly: SPR (Biacore T200), biotinylated PD-1 ECD monomer captured on SA chip.

The Kd is the concentration at which binding is half-saturated. The term EC50 denotes the midpoint of the concentration-response curve.

T1 sequence (Q15116 25-288): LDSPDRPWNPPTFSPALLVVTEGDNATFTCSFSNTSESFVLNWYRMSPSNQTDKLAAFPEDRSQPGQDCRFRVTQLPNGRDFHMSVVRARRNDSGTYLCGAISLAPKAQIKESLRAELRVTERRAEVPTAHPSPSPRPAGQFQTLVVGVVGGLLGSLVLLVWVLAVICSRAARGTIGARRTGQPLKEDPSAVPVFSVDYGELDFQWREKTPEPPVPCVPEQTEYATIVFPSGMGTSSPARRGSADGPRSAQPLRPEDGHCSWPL
T3 sequence (B0LAJ3 entry or part of it limits assumed): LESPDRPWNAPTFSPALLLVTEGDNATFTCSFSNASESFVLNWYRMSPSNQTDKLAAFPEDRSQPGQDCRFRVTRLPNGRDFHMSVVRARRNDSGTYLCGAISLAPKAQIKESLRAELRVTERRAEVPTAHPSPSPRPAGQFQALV
T4 sequence (B0LAJ3 entry or part of it limits assumed): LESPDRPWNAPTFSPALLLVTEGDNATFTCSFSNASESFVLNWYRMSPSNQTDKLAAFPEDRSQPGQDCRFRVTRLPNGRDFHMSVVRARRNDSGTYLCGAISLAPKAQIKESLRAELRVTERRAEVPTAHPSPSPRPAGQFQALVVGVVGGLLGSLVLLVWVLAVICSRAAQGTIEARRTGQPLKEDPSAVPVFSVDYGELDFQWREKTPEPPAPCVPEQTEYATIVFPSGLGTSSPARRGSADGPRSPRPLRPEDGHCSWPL
T5 sequence (Q15116 25-170): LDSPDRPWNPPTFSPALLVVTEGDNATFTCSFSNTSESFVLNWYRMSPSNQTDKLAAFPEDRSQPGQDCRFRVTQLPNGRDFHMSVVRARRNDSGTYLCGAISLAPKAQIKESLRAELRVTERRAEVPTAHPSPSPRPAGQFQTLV

B1: APE12890 (3.7C6 anti-PD-1 antibody, CHO-S) (antibody, human IgG1, kappa, V domains shown)
VH: QVQLVQSGSELKKPGASVKVSCKASNYTFTDYSMHWVRQAPGQGLEWMGWINIETYYPTYADQFKGRFAFSLDTSVSTAYLQISSLKAEDTAVYYCARDYYGRFYYAMDYWGQGTTVTVSS
VL: EIVLTQSPATLSLSPGERATLSCTASSSVSSSYFHWYQQKPGQAPRLLIYSTSNLASGIPARFSGSGSGTDFTLTISRLEPEDFAVYYCHQYHRSPLTFGGGTKVEIKR
Regarding B1, in assay [1], the “median IC50 for IFN-γ inhibition, human whole blood tetanus toxoid recall assay” value came out at 0.053 nM and the “median IC50 for IL-17A inhibition, human whole blood tetanus toxoid recall assay” value was 0.097 nM.

B2: APE12095 (3.7C6 anti-PD-1 antibody, ExpiCHO-S transient) (antibody, V domains shown)
VH: QVQLVQSGSELKKPGASVKVSCKASNYTFTDYSMHWVRQAPGQGLEWMGWINIETYYPTYADQFKGRFAFSLDTSVSTAYLQISSLKAEDTAVYYCARDYYGRFYYAMDYWGQGTTVTVSS
VL: EIVLTQSPATLSLSPGERATLSCTASSSVSSSYFHWYQQKPGQAPRLLIYSTSNLASGIPARFSGSGSGTDFTLTISRLEPEDFAVYYCHQYHRSPLTFGGGTKVEIKR
notes: detected with anti-human kappa; Only variable regions are tied to APE12095; suffixes are lots; also called APE12095.03; APE12095.04
On to B2, for which the Kd in assay [2] was 0.45 nM; in assay [3], 0.244 nM. Moreover, the EC50 in assay [4] is 7.99 nM and 6.17 nM and 7.47 nM.

B3: APE12537 (3.7C6 anti-PD-1 antibody, CHO-S sorted stable pool) (antibody, human IgG1, kappa, V domains shown)
VH: QVQLVQSGSELKKPGASVKVSCKASNYTFTDYSMHWVRQAPGQGLEWMGWINIETYYPTYADQFKGRFAFSLDTSVSTAYLQISSLKAEDTAVYYCARDYYGRFYYAMDYWGQGTTVTVSS
VL: EIVLTQSPATLSLSPGERATLSCTASSSVSSSYFHWYQQKPGQAPRLLIYSTSNLASGIPARFSGSGSGTDFTLTISRLEPEDFAVYYCHQYHRSPLTFGGGTKVEIKR
notes: also called APE12537.01
Regarding B3, the values for the Kd in assay [5] and in assay [3] were 0.64 nM and 0.445 nM, respectively.

B4: 030-13263/030-13264 (CDR-grafted) (antibody, V domains shown)
VH: QVQLVQSGSELKKPGASVKVSCKASNYTFTDYSMHWVRQAPGQGLEWMGWINAETYYPTYADDFKGRFAFSLDTSVSTAYLQISSLKAEDTAVYYCARDYYGRFYYAMDYWGQGTTVTVSS
VL: EIVLTQSPATLSLSPGERATLSCTASSSVSSSYFHWYQQKPGQAPRLLIYSTSNLASGIPARFSGSGSGTDFTLTISRLEPEDFAVYYCHQYHRSPLTFGGGTKVEIKR
notes: CDR-grafted forerunner of APE12537; APE12537 differs from it by A52aI and D62Q (Kabat) in the heavy chain
The molecule B4 registered a Kd in assay [5] of 1.02 nM.

B5: APE12043 (437M5-112 anti-PD-1 antibody, ExpiCHO-S transient) (antibody, V domains shown)
VH: QVQLVQSGAEVKKPGASVKVSCKASGYTFTSYSMHWVRQAPGQGLEWMGYINPSSGFTNYIQKFRDRVTMTADKSSSTAYMELSRLRSDDTAVYYCARDYYGRYYYVMDYWGQGTTVTVSS
VL: DIQMTQSPSSLSASVGDRVTITCTASSSVSSSFLHWYQQKPGKAPKLLIYSTSDLASGVPSRFSGSGSGTDFTLTISSLQPEDFATYYCHQYHRSPLTFGGGTKVEIKR
notes: detected with anti-human kappa; Only variable regions are tied to APE12043; the suffixes .02 to .05 are lots; also called APE12043.02; APE12043.03
As for B5, the results for the Kd in assay [2], in assay [7] and in assay [3] were 0.21 nM, 0.031 nM and 0.09 nM, respectively. Further, the EC50 in assay [6] was 2.99 nM and 3.06 nM; in assay [4], 3.69 nM and 2.69 nM and 2.59 nM.

B6: APE12538 (437M5-112 anti-PD-1 antibody, CHO-S sorted stable pool) (antibody, human IgG1, kappa, V domains shown)
VH: QVQLVQSGAEVKKPGASVKVSCKASGYTFTSYSMHWVRQAPGQGLEWMGYINPSSGFTNYIQKFRDRVTMTADKSSSTAYMELSRLRSDDTAVYYCARDYYGRYYYVMDYWGQGTTVTVSS
VL: DIQMTQSPSSLSASVGDRVTITCTASSSVSSSFLHWYQQKPGKAPKLLIYSTSDLASGVPSRFSGSGSGTDFTLTISSLQPEDFATYYCHQYHRSPLTFGGGTKVEIKR
notes: also called APE12538.01
Turning to B6, the Kd in assay [3] was 0.217 nM.
